We go through six sequences from the DeepSol protein solubility set.

The data set can be described thus: soluble on expression in E. coli; label from the status in PepcDB or PDB records.
As for “MEPIDIARLEEAVVSFYRSNSQNQAITHEWLTDAEASPQAWQFSWQLMQLGKSQEVQFFGAITLHSKLMKHWHEVPPENREELKQKILESIVRFAGGPKIVLNRLCISLGAYIVHMLGEWPGAIEEVINTFQNQRMPNVSADVQLWIMLEVLTAIPEEAQVIHTSVKRVVLRAEIAKRVQLVIHTVERYLKLQMNRVWDAEAYSNMNRAVKCVGTWIKNIGYTIEGCVTITAVLLEVVHKCYWPCIHAGDGCMTADENELAESCLKTMVNIIIQPDCHNYPKTAFVLIKMFLDSLSEITKTEWKRENDNEDIIVHIYMLFVSSVERHSTLLLSGITSADPELSILVHRIVQEILHCTDKPGIYPVEESCSTMALAFWYMLQDEVFAMSNDEQKHKCWEYIKPLYAHLTRILVRKSEQPDEKSLAKWSSDDLECFRCYRQDISDTFMYCYDVLNDYILEILAAMLDEAIADLQRHPTHWTKLEACIYSFQSVAEHFGGEEKRQIPRLMRVLAEIPYEKLNVKLLGTALETMGSYCNWLMENPAYIPPAINLLVRGLNSSMSAQATLGLKELCRDCQLQLKPYADPLLNACHASLNTGRMKNSDSVRLMFSIGKLMSLLRPEEIPKYLDIIVSPCFEELQAICQADSKTPAARIRTIFRLNMISTLFSSLNTDVDEQATDQPIVQPVLLVMQRTMPIFKRIAEMWVEEIDVLEAACSAMKHAITNLRSSFQPMLQDLCLFIVASFQTRCCAPTLEISKTAIVMFFKDEGCKPLMQQLLREFIQHSFKLFESTPEQNFSNISDTMETFFGCLTQIIKKIPQVLEDKTLAYDRLVFYAQRGMTLPESGAIRNSIQFLTHFVMQSRNHAHVTEVVLATGEQTLYTAMMCVGYLTPRSQVDKFADILLAMNRKYAAEMAVWMKSLMSTPNFPTQLITDADKTRYTALIIKEKVNKRLLQQHLSEMAMKTRGLTEKFQ”, the “soluble on expression in E. coli” value is listed as “soluble”.

With “MSLSNTELILIRVTGEDRPGLTASVTEILAKYDATILDIGQADIHNTLSLGILFRSEERHSGFIMKELLFKASSLGVTIRFEPIGTDQYENWVGMQGKNRYILTVLGRKLSARQISAATRVLAEQDLNIDAIKRLTGRIPLDEDKTDTRTRACIEFSVRGTPKDRIAMQERLMQLASEQEMDFSFQQDNMYRRMRRLICFDMDSTLIETEVIDELAIRAGVGDEVKAITESAMRGEIDFTESFTRRVALLKGLDESVMQEIAESLPITEGVDRLMYVLKKYGYKIAILSGGFTYFGQYLQKKYGIDYVYANELEIVDGKLTGRYLGDVVDGKRKAELLRLIAQVEKVDIAQTIAVGDGANDLPMLGIAGLGIAFHAKPKVVANAKQSINTIGLDGVLYFLGFKDSYLNEGHHHHHH”, the “soluble on expression in E. coli” value is recorded as “soluble”.

On to “MAHHHHHHMGTLEAQTQGPGSMMAASHDDDTVDGLATAVRGGDRAALPRAITLVESTRPDHREQAQQLLLRLLPDSGNAHRVGITGVPGVGKSTAIEALGMHLIERGHRVAVLAVDPSSTRTGGSILGDKTRMARLAVHPNAYIRPSPTSGTLGGVTRATRETVVLLEAAGFDVILIETVGVGQSEVAVANMVDTFVLLTLARTGDQLQGIKKGVLELADIVVVNKADGEHHKEARLAARELSAAIRLIYPREALWRPPVLTMSAVEGRGLAELWDTVERHRQVLTGAGEFDARRRDQQVDWTWQLVRDAVLDRVWSNPTVRKVRSELERRVRAGELTPALAAQQILEIANLTDR”, for which the “soluble on expression in E. coli” value is “soluble”.

With “MRISNGSGGDNVFTSGRFRRRGAATPLISLDFIVENGQGEILLGQRLNRPAQGYWFVPGGRVCKDETLEAAFARLTQAELGVRLPLAAGTFYGVWQHFYDDNFSGEDFSTHYIVLGFRLRVAESDLRLPDAQHGSYRWLTPEQLLASDNVHENSRAYFSPDAPAVGL”, the “soluble on expression in E. coli” value is “not soluble”.

Consider “MLLFSAFLIFGFSIGFSEEASCRHPHERFIGTRCYAFVSKKHTYNTAKEYCDSHGYSLATVDNAITSNFLASSAATEFGSNNGQFWIGLSRKKDYELFNWDDGTIVSYTNFEAGFPNKQDFVAENVRNGRWQTLAEHKELEFVCSYDPTATTSAAPTTIPPTTTTTRAPTTTTVRKTTQTTATTMTTPKPTTTVSTTTTTTVPPTTTPKACPQGFVLFEPTQKCYIVLVYGNDSDYPDVPDDAPFLTRENQRCAKYGATVATIHSSDLNDLFRSLIYERFNDTRYATIGLRNIDMKTISGKWQWFDGTSPDYLNFGNMFPKTGDYIAQTSSQGFWVSYTHTAPNEGVVCSKNRKSERGFTGLVDIDQAAIKKLELQTYLK”, for which the “soluble on expression in E. coli” value is recorded as “not soluble”.

As to “VSDQFDAKAFLKTVTSQPGVYRMYDAGGTVIYVGKAKDLKKRLSSYFRSNLASRKTEALVAQIQQIDVTVTHTETEALLLEHNYIKLYQPRYNVLLRDDKSY”, the “soluble on expression in E. coli” value is “soluble”.
